Experimental data as given in patent US20050002904A1 (published 2005).
Changes are numbered by the printed parent chain. Where no end group is shown, it is not given here.

What was measured:
[1] = target: T1, p120catenin (human, UniProt O60716 1-968, limits assumed); assay: anti-HA co-immunoprecipitation from infected endothelial cells, anti-p120 catenin blot
T1 construct: Endogenous protein in human cells; also called p120ctn
T1 sequence (looked up): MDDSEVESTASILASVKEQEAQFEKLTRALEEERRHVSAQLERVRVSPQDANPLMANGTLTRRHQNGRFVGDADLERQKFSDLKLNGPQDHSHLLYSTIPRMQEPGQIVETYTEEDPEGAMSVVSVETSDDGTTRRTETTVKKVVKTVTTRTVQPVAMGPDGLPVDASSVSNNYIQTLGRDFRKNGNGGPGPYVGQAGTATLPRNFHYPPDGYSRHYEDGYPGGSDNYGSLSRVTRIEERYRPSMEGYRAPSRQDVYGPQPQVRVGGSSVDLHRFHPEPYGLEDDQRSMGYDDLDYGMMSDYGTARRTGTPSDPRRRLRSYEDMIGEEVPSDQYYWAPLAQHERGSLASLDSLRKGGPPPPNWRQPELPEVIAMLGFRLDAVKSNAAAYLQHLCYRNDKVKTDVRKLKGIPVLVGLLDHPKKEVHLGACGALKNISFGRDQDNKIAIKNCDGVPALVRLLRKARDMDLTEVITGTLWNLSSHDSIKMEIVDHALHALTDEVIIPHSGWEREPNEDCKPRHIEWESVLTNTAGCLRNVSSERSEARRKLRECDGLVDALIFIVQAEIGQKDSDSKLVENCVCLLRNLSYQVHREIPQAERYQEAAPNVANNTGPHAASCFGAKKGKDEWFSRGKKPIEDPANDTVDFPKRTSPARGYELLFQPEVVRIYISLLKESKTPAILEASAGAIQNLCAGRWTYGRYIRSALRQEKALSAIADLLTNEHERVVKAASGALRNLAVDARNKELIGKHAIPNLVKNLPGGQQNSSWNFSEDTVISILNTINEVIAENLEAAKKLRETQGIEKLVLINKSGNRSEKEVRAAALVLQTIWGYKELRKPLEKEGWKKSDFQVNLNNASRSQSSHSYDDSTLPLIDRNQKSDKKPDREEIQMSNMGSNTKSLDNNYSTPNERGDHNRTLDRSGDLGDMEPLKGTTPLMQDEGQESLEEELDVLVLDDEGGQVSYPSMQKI
Experimental: Endothelial cells were solubilized in RIPA buffer, and immunoprecipitated using indicated antibodies (5 μg/1.5 mg protein). […] All blots shown are representative of those obtained in at least three separate experiments.
Cell extracts were immunoprecipitated with anti-HA (lanes 1, 2, 4, 5 and 6) or anti-p120 catenin (lane 3) monoclonal antibodies (mAb) and subjected to western immunoblot analysis with anti-p120 catenin (FIG. 17A). To determine the level of expression, the bottom portion of the blot was analyzed by immunoblotting with anti-HA mAbs (FIG. 17B).

[2] = target: T1, p120catenin; assay: cell-based or functional assay
[3] = target: T2, VE-cadherin (human, UniProt P33151 48-784); assay: co-immunoprecipitation from HUVECs infected with wild-type PAP2b, western blot
T2 sequence (looked up): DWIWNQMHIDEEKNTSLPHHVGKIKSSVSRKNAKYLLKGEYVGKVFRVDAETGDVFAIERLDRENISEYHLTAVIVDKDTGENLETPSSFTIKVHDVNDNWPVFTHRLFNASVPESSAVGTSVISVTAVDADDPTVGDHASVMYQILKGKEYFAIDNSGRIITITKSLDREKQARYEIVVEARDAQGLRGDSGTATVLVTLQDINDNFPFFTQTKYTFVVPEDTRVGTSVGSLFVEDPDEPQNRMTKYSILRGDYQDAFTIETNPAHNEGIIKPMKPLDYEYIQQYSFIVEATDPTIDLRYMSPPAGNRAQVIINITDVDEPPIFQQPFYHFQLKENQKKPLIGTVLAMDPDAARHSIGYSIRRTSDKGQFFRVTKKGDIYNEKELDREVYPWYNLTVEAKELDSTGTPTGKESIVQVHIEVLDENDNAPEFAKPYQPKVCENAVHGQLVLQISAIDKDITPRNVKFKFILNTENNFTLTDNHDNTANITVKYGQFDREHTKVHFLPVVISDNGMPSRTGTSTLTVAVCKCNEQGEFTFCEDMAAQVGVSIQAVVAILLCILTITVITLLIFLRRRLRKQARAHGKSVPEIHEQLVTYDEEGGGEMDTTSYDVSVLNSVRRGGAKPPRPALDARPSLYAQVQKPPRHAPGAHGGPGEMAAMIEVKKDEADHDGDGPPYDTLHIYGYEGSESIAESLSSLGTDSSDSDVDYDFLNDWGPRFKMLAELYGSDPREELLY

[4] = target: T3, γ-catenin (plakoglobin) (human, UniProt P14923 1-745); assay: as above
T3 sequence (looked up): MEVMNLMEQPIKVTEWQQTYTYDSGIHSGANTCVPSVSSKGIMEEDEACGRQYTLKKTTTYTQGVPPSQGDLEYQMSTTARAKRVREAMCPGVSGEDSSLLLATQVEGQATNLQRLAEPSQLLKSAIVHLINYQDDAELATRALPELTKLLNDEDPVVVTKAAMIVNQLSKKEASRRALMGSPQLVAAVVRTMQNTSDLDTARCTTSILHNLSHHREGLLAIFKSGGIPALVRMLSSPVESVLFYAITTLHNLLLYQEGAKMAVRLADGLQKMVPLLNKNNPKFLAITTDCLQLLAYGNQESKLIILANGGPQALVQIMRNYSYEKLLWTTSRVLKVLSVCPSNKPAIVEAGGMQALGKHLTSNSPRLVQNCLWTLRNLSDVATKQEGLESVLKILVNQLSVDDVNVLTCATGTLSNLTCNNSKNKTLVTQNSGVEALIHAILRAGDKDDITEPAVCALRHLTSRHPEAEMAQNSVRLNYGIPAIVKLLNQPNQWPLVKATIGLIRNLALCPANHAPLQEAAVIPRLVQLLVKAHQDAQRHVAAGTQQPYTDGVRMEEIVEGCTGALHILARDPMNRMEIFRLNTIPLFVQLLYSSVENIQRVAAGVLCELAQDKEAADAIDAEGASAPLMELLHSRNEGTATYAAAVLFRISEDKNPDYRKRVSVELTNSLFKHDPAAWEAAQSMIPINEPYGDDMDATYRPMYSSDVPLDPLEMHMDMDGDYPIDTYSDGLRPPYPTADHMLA

[5] = target: T4, β-catenin (human, UniProt P35222 2-781); assay: as above
T4 sequence (looked up): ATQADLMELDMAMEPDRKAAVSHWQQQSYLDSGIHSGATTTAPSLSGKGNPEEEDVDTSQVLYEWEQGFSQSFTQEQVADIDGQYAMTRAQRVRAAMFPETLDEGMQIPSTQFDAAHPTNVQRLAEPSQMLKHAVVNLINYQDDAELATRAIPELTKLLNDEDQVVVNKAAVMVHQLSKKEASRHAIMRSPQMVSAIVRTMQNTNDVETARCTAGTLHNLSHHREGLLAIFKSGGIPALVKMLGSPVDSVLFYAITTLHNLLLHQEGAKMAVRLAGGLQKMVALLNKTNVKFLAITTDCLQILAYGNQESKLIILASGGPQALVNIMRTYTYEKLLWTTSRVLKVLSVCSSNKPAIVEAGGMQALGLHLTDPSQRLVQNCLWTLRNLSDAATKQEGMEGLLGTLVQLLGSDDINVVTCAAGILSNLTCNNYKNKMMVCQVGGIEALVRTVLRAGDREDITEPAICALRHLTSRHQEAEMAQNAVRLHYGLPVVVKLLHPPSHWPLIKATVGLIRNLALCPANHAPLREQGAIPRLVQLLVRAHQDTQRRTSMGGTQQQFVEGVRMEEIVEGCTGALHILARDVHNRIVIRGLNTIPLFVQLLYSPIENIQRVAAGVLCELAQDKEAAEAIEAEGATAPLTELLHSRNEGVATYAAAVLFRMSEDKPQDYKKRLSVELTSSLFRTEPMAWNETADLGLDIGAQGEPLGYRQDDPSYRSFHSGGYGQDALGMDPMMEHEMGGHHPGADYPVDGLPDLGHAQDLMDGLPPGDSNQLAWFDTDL

[6] = target: VEGF receptor-2 (VEGFR-2) (human, UniProt P35968 20-1356); assay: co-immunoprecipitation from HUVECs, western blot of identical blots
[7] = target: CD36 (human, UniProt P16671 2-472); assay: as above
[8] = target: Tie-2 (human, UniProt Q02763 23-1124); assay: as above
[9] = target: PECAM-1 (human, UniProt P16284 28-738); assay: as above
[10] = target: soluble α2β1 integrin (UniProt P17301 30-1132; P05556 21-728); assay: solid-phase ligand binding ELISA, integrin immobilized
Experimental: (§1) Briefly, soluble α2β1, α5β1, αvβv3 and αvβ5 integrins (1 μg/ml in a solution containing 20 mM Tris pH 7.4, 150 mM NaCl, 1 mM CaCl₂, 1 mM MgCl₂ and 1 mM MnCl₂) were immobilized onto 96-well microtiter plates at 4° C. Wells were washed and blocked with 0.5% BSA. […] Plates were then washed again and the ABTS substrate (Bio-Rad) was added. All washing steps were carried out using PBS. Absorbances were read at 405 nm, and non-specific binding values were adjusted against BSA.

[11] = target: soluble αvβ5 integrin (UniProt P06756 31-992; P18084 24-719); assay: as above
Experimental: as §1

[12] = target: T5, αvβ3 integrin of endothelial cells (human, UniProt P06756 31-1048; P05106 27-788); assay: GST pull-down from 35S-labeled endothelial cell lysate, re-immunoprecipitation with LM609
T5 construct: whole, on cells; On cells in the adhesion assays
Text: (§2) Lysates were pre-adsorbed twice with GST-Sepharose beads to remove proteins that interact with GST-Sepharose beads non-specifically. […] The beads were then extensively washed. […] The samples were equally divided into three tubes and diluted with cold immunoprecipitation dilution buffer to adjust the concentration of SDS to <0.1%. The samples were then immediately subjected to immunoprecipitation with indicated antibodies (FIG. 10H).

[13] = target: T6, α5β1 integrin of endothelial cells (human, UniProt P08648 42-1049; P05556 21-798); assay: GST pull-down from 35S-labeled endothelial cell lysate, re-immunoprecipitation with P1D6
T6 construct: whole, on cells; On cells in the adhesion assays
Text: as §2

T5 sequence (P06756 31-1048, chain 1 of 2): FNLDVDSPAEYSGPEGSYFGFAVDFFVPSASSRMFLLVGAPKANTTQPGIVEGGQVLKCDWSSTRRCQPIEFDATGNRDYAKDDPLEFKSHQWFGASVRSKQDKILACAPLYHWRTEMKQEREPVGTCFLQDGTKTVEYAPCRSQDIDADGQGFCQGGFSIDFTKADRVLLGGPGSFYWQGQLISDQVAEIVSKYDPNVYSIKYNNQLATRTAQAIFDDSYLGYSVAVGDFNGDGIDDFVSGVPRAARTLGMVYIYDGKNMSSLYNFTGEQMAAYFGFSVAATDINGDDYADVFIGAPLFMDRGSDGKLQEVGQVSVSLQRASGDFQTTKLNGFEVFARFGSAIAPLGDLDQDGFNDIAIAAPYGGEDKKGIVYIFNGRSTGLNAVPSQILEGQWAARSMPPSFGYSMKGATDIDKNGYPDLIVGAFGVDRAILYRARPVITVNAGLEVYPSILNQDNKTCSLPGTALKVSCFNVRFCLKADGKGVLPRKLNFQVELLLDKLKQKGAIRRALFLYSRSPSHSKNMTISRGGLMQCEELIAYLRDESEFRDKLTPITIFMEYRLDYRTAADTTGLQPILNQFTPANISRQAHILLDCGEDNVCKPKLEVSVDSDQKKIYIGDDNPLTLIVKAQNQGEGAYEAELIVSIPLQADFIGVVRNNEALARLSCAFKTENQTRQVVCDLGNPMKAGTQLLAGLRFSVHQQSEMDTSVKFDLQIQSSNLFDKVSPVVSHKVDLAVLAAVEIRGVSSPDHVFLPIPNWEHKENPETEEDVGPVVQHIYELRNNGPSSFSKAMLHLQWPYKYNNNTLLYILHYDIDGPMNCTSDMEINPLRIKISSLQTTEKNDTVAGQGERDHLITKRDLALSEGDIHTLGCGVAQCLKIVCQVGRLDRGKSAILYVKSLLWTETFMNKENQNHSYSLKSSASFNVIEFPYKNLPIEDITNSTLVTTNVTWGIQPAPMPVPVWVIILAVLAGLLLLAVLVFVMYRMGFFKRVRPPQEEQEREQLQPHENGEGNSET
T5 sequence (P05106 27-788, chain 2 of 2): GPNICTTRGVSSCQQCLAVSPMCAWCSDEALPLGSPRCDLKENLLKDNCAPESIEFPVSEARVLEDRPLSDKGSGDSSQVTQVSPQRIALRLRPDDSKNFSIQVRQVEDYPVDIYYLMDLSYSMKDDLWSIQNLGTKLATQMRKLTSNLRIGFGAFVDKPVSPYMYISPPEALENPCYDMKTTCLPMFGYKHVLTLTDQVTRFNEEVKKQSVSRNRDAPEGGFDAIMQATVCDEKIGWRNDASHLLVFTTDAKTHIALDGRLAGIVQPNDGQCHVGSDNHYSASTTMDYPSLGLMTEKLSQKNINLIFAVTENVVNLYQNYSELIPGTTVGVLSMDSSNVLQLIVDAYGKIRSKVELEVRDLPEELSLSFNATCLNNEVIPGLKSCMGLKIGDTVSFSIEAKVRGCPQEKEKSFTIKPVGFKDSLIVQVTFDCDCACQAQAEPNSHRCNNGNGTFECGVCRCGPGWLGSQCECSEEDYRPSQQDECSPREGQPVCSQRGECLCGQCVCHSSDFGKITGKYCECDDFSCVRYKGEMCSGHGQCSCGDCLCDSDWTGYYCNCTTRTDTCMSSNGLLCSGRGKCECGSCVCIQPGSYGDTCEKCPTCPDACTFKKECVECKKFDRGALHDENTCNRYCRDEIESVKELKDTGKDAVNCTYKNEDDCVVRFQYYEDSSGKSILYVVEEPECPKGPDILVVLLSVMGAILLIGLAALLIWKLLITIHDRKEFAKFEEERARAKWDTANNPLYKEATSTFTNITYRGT
Sequence of Tie-2 (Q02763 23-1124 limits assumed): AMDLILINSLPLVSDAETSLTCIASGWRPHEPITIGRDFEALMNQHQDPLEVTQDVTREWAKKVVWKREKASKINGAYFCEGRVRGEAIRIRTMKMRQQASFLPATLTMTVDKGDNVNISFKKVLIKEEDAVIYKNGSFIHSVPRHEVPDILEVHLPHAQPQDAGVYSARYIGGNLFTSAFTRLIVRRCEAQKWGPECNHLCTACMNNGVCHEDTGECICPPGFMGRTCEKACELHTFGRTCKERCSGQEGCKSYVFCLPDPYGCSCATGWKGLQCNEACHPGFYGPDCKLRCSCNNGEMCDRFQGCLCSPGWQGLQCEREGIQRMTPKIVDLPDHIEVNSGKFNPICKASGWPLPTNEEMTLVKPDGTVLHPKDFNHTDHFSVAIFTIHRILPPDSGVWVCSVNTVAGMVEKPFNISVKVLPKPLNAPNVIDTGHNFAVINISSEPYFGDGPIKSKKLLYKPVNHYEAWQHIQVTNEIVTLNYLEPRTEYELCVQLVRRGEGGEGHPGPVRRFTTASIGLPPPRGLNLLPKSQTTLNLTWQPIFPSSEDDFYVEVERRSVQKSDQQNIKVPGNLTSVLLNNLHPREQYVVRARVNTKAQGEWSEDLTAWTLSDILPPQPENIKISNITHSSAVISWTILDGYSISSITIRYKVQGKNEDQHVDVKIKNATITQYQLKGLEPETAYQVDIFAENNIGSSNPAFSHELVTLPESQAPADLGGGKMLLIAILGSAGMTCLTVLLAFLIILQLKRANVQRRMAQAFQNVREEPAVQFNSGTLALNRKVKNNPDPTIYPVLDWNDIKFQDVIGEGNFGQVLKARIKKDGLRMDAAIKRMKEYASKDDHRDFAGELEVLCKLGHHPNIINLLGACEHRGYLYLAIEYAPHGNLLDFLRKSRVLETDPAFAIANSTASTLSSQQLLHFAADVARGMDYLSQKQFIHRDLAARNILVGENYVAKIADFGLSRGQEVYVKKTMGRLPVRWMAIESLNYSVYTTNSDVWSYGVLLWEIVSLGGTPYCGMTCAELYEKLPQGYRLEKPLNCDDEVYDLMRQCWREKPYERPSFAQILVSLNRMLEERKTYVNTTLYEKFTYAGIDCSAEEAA
Sequence of VEGF receptor-2 (VEGFR-2) (P35968 20-1356 limits assumed): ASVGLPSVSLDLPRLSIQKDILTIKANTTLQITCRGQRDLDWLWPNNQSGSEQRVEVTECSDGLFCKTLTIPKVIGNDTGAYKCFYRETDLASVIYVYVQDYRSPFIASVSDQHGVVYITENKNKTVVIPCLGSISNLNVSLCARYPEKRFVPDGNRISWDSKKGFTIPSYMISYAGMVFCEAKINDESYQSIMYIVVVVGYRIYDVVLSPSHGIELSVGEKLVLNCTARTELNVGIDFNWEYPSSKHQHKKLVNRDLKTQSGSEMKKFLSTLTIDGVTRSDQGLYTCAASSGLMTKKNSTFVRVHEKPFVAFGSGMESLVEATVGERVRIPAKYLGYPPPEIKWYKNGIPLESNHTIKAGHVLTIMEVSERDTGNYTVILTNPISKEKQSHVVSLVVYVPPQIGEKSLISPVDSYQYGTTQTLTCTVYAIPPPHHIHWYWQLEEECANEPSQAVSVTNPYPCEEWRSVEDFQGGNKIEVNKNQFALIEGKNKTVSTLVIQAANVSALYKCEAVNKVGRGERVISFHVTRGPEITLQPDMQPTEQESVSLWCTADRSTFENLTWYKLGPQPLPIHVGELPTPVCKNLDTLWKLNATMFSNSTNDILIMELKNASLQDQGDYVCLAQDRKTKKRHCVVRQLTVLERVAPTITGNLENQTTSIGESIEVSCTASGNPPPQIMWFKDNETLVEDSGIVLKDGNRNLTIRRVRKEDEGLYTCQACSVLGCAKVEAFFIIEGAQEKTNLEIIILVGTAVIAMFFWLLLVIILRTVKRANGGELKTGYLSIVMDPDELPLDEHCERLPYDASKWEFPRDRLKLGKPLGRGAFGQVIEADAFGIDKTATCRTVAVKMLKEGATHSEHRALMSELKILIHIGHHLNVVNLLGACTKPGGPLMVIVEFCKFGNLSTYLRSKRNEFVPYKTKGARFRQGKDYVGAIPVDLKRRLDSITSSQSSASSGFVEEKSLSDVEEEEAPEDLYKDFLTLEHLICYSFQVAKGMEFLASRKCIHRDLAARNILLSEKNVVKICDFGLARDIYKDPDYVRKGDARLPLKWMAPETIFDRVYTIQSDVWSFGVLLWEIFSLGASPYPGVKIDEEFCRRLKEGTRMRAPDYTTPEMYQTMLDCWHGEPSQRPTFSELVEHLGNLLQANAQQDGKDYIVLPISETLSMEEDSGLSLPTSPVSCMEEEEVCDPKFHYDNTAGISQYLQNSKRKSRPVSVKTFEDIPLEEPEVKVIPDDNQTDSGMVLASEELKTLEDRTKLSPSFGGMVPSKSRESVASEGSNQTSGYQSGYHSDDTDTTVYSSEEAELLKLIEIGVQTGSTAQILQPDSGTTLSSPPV
Sequence of CD36 (P16671 2-472 limits assumed): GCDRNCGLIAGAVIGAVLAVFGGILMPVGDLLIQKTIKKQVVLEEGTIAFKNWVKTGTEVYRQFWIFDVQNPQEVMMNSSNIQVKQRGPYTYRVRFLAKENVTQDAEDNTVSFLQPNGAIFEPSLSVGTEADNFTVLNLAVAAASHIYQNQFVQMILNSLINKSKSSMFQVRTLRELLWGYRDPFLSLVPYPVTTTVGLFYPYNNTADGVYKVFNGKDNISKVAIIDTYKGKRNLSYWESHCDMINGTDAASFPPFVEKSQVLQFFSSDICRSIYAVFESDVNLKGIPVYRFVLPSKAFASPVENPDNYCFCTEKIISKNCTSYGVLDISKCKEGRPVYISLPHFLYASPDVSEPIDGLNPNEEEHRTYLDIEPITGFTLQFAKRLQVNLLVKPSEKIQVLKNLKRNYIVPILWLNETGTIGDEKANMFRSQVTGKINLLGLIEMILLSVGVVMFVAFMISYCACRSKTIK

B1: PAP2b/VCIP retroviral construct E, lacking the entire C-terminal cytoplasmic segment (other, not shown: small tags and cut ends)
chain: MQNYKYDKAIVPESKNGGSPALNNNPRRSGSKRVLLICLDLFCLFMAGLPFLIIETSTIKPYHRGFYCNDESIKYPLKTGETINDAVLCAVGIVIAILAIITGEFYRIYYLKKSRSTIQNPYVAALYKQVGCFLFGCAISQSFTDIAKVSIGRLRPHFLSVCNPDFSQINCSEGYIQNYRCRGDDSKVQEARKSFFSGHASFSMYTMLYLVLYLQARFTWRGARLLRPLLQFTLIMMAFYTGLSRVSDHKHHPSDVLAGFAQGALVACCIVFFVSDLFKTKTT
notes: residues 1-283 follow from that; Expressed in endothelial cells, lysate used; also called Δ-C-Cyto-284-311; VCIP-Δ-C-cyto
binding result [1]: no binding

B2: wild-type VCIP/PAP2b, HA-tagged, expressed from pLNCX2-VCIP-RGD (other)
chain: YPYDVPDYAYPYDVPDYAYPYDVPDYAMQNYKYDKAIVPESKNGGSPALNNNPRRSGSKRVLLICLDLFCLFMAGLPFLIIETSTIKPYHRGFYCNDESIKYPLKTGETINDAVLCAVGIVIAILAIITGEFYRIYYLKKSRSTIQNPYVAALYKQVGCFLFGCAISQSFTDIAKVSIGRLRPHFLSVCNPDFSQINCSEGYIQNYRCRGDDSKVQEARKSFFSGHASFSMYTMLYLVLYLQARFTWRGARLLRPLLQFTLIMMAFYTGLSRVSDHKHHPSDVLAGFAQGALVACCIVFFVSDLFKTKTTLSLPAPAIRKEILSPVDIIDRNNHHNMM
notes: Expressed in HEK293, SW480 and HUVEC cells; also called VCIP-RGD (WT); pLNCX2-PAP2b-RGD
LEF-1 luciferase (TOPFLASH) activity in SW480 cells, fold reduction, construct B [2]: ~3.2 fold | binding result [3]: no binding | binding result [4]: no binding | binding result [5]: no binding | binding result [6]: no binding | binding result [7]: no binding | binding result [8]: no binding | binding result [9]: no binding

B3: mutant VCIP/PAP2b-RGE, HA-tagged, expressed from pLNCX2-VCIP-RGE (other)
chain: B2 chain with D211E
LEF-1 luciferase (TOPFLASH) activity in SW480 cells, fold reduction, construct C [2]: ~4.2 fold

B4: GST-VCIP-RGD fusion protein (wild-type glutathione S-transferase-VCIP-RGD) (other)
chain: DIAKVSIGRLRPHFLSVCNPDFSQINCSEGYIQNYRCRGDDSKVQEARKS
modifications: cysteine pairing not given here; also: recombinant GST fusion
notes: also called GST-RGD-VCIP; recombinant VCIP-RGD; not shown: glutathione S-transferase (GST) encoded by the pGstag vector
binding result [10]: no binding (tested: 50-350 ng per well) | binding result [11]: no binding (tested: 50-350 ng per well) | binding result [12]: binds | binding result [13]: binds
